This note sets out measurements from publication doi:10.1101/2023.03.27.534461 (bioRxiv, 2023).

This series concerns the molecule itself. The series is described as follows: cryo-EM structure; 100 nM unmodified nucleosome with 10 μM Bre1-Bre1-Rad6 fusion protein, 20 mM HEPES pH 7.5, 50 mM NaCl, 1 mM DTT, room temperature 30 min; cross-linked with glutaraldehyde, then Superdex 200; three states resolved.

B1: Bre1 591–700 (domain or fragment, yeast, UniProt Q07457 591-700, looked up)
chain: KLNDTEIELKHFKQKASHLESKCEKLHDTLFRGNNKNKGSSDEALVEELANFRTLVYCSLCSKNWKNMAIKTCGHVFCENCCKERLAARMRKCPTCNKAFSSNDLLTVHL
notes: Bre1, yeast E3 ubiquitin ligase, residues 591-700: coiled coil that mediates dimerization and RING domain; In the structure the two copies of Bre1(591-700) stood on one chain of the fusion m1, joined by a (GGS)4 linker; written here as a molecule of its own for the pairs Bre1 with H2A and Bre1 with Bre1; also called Bre1-A; Bre1-B; source: E. coli BL21(DE3)Rosetta2, purified, as part of the …
B1: the binding result is given as “binds”.
